From publication PMC9668914, “Understanding VPAC receptor family peptide binding and selectivity” (Nature Communications, 2022)

Target: PACAP type 1 receptor (PAC1R), PAC1null splice variant, FLAG and His tagged (UniProt P41586)
Sequence (P41586 21-468, change not shown): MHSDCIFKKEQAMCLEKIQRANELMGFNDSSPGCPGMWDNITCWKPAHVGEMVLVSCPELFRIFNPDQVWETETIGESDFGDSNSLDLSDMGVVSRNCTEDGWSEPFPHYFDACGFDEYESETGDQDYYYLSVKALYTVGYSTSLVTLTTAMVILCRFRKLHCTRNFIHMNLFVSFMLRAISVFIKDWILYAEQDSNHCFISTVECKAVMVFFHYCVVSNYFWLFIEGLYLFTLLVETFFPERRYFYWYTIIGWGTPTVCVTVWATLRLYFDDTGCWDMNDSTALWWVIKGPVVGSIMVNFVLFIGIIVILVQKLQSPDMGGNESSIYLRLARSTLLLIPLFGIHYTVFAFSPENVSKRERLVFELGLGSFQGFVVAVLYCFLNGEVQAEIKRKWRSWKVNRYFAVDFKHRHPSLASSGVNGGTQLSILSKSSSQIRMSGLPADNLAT

Substance	cAMP potency in COS-7 cells transfected with PAC1R, fold change relative to PACAP27 [fold]	cAMP potency in COS-7 cells transfected with PAC1R, fold change relative to VIP [fold]
Ala4 PACAP27 (peptide)	5	
Gly4 VIP (peptide)		3
